Laboratory results taken from patent US7351689 (ZymoGenetics, dated 2008).

Assays:
[1] = biological target: T1, human IL-28 receptor on transfected 293 HEK cells (IL-28 receptor alpha subunit with endogenous CRF2-4) (human); test: cell-based or functional assay
[2] = biological target: T1, human IL-28 receptor on transfected 293 …; test: cell-based or functional assay; remark: listed apart in the source

T1 sequence (Q8IU57 whole entry, chain 1 of 2): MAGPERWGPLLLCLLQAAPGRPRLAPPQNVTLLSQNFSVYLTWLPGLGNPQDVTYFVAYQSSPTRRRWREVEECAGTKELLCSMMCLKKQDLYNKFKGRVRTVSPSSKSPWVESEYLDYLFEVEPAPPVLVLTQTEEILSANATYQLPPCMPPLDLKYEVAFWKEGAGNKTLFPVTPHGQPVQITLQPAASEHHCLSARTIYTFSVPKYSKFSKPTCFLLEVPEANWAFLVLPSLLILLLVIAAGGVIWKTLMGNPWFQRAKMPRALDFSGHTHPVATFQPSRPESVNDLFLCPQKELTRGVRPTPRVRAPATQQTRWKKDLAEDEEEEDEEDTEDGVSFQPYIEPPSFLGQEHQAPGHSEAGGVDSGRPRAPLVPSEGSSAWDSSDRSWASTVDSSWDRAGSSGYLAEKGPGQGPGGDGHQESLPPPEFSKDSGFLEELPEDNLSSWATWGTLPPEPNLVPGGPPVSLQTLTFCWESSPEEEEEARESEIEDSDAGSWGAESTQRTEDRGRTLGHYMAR
T1 sequence (Q08334 whole entry, chain 2 of 2, further chain): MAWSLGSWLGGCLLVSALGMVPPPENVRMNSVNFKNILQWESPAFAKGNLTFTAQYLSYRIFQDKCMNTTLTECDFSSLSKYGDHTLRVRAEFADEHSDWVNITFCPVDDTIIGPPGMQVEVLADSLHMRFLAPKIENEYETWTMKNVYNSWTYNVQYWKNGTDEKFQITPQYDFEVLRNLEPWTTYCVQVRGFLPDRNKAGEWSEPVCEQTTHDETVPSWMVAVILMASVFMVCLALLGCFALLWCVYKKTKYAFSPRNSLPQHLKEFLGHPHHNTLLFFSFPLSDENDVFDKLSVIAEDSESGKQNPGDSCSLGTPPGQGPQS

B1: C1-C3 form (C16-C113) of wild-type E. coli-derived IL-29 (ligand)
chain: MGPVPTSKPTTTGKGCHIGRFKSLSPQELASFKKARDALEESLKLKNWSCSSPVFPGNWDLRLLQVRERPVALEAELALTLKVLEAAAGPALEDVLDQPLHTLHHILSQLQACIQPQPTAGPRPRGRLHHWLHRLQEAPKKESAGCLEASVTFNLFRLLTRDLKYVADGNLCLRTSTHPEST
bioactivity in an ISRE assay [1]: 30 fold higher than the C112-C171 form

B2: IL-29 (SEQ ID NO: 4) (ligand)
chain: GPVPTSKPTTTGKGCHIGRFKSLSPQELASFKKARDALEESLKLKNWSCSSPVFPGNWDLRLLQVRERPVALEAELALTLKVLEAAAGPALEDVLDQPLHTLHHILSQLQACIQPQPTAGPRPRGRLHHWLHRLQEAPKKESAGCLEASVTFNLFRLLTRDLKYVADGNLCLRTSTHPEST
ISRE Signaling of Transfected 293 Cells Following Class II Cytokine Stimulation (Fold Induction), ISRE-Luc./IL-28R, IL-29 125 ng/ml [2]: 108 fold induction

B3: zcyto20 (IL-28A), human (ligand)
chain: VPVARLHGALPDARGCHIAQFKSLSPQELQAFKRAKDALEESLLLKDCRCHSRLFPRTWDLRQLQVRERPMALEAELALTLKVLEATADTDPALVDVLDQPLHTLHHILSQFRACIQPQPTAGPRTRGRLHHWLYRLQEAPKKESPGCLEASVTFNLFRLLTRDLNCVASGDLCV
ISRE Signaling of Transfected 293 Cells Following Class II Cytokine Stimulation (Fold Induction), ISRE-Luc./IL-28R, IL-28A 125 ng/ml [2]: 125 fold induction
